Experimental data as given in patent US11175293 (UNIVERSITY OF UTAH RESEARCH FOUNDATION, dated 2021).

Biological target: T1, NanoSpike
T1 construct: also called IH4vs2-Spike
Assay: flow cytometry on human whole blood, detected with FITC-conjugated anti-Strep-tag antibodies

B1: Glycophorin A (GYPA) on the surface of human red blood cells (other)
chain: LSTTEVAMHTSTSSSVTKSYISSQTNDTHKRDTYAATPRAHEVSEISVRTVYPPEEETGERVQLAHHFSEPEITLIIFGVMAGVIGTILLISYGIRRLIKKSPSDVKPLPSPDTDVPLSSVEIENPETSDQ
notes: whole, on cells; also called GPA; RBC
binding result: binds
